For one substance, pKa results are on record in article PMC6288486.

The data set relates to His9. Nature of the data set: UV-vis. Conditions: 25 °C; none; pH adjusted with NaOH (1, 0.1, 0.01 M) and TFA (0.1 and 1% v/v in water); Mn(III) resting state, 15 µM. Transition from bis-aquo (species 1) to His-aquo (species 2) axial coordination. Helical fold stabilised by 40% TFE.

As a reminder, the pKa is the negative logarithm of the acid dissociation constant. Lower therefore signals a stronger acid or weaker base.

“Mn-Mimochrome VI*a (Mn-MC6*a) (synthetic construct)” displayed a pKa of 4.0.
